{
  "source": "patent US20110281938",
  "key": {"[1]": {"biological_target": "TFPI (source and species not stated; Examples 8, 12 and 45), P10646", "sequence (P10646 whole entry, looked up)": "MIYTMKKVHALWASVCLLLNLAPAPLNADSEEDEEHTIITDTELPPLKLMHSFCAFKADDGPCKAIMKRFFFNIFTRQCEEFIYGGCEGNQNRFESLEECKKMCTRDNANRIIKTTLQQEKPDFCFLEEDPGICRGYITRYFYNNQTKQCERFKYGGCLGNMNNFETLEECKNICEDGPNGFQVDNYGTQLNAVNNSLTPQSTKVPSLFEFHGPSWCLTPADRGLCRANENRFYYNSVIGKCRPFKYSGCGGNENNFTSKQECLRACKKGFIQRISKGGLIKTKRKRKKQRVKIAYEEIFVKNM"}, "[2]": {"biological_target": "Recombinant human TFPI purified from a cell line from Novo Nordisk"}},
  "data": [
    {"protein": "tissue factor:FVIIa complex (TF:FVIIa) (protein) chain 1: SGTTNTVAAYNLTWKSTNFKTILEWEPKPVNQVYTVQISTKSGDWKSKCFYTTDTECDLTDEIVKDVKQTYLARVFSYPAGNVESTGSAGEPLYENSPEFTPYLETNLGQPTIQSFEQVGTKVNVTVEDERTLVRRNNTFLSLRDVFGKDLIYTLYYWKSSSSGKKTAKTNTNEFLIDVDKGENYCFSVQAVIPSRTVNRKSTDSPVECMGQEKGEFREIFYIIGAVVFVVIILVIILAISLHKCRKAGVGQSWKENSPLNVS chain 2: ANAFLEELRPGSLERECKEEQCSFEEAREIFKDAERTKLFWISYSDGDQCASSPCQNGGSCKDQLQSYICFCLPAFEGRNCETHKDDQLICVNENGGCEQYCSDHTGTKRSCRCHEGYSLLADGVSCTPTVEYPCGKIPILEKRNASKPQGRIVGGKVCPKGECPWQVLLLVNGAQLCGGTLINTIWVVSAAHCFDKIKNWRNLIAVLGEHDLSEHDGDEQSRRVAQVIIPSTYVPGTTNHDIALLRLHQPVVLTDHVVPLCLPERTFSERTLAFVRFSLVSGWGQLLDRGATALELMVLNVPRLMTQDCLQQSRKVGDSPNITEYMFCAGYSDGSKDSCKGDSGGPHATHYRGTWYLTGIVSWGQGCATVGHFGVYTRVSQYIEWLQKLMRSEPRPGVLLRAPFP", "values": [
      {"measurement": "TF:FVIIa activity, hydrolysis of fluorogenic substrate SN-17c, 8 nM TFPI", "setting": "[1]", "result": "TFPI inhibited approximately 50% of TF:FVIIa activity under these conditions"}
    ]},
    {"protein": "extrinsic Xase: re-lipidated recombinant human tissue factor (Innovin) with factor VIIa (Enzyme Research Laboratories) (protein) chain 1: SGTTNTVAAYNLTWKSTNFKTILEWEPKPVNQVYTVQISTKSGDWKSKCFYTTDTECDLTDEIVKDVKQTYLARVFSYPAGNVESTGSAGEPLYENSPEFTPYLETNLGQPTIQSFEQVGTKVNVTVEDERTLVRRNNTFLSLRDVFGKDLIYTLYYWKSSSSGKKTAKTNTNEFLIDVDKGENYCFSVQAVIPSRTVNRKSTDSPVECMGQEKGEFREIFYIIGAVVFVVIILVIILAISLHKCRKAGVGQSWKENSPLNVS chain 2: ANAFLEELRPGSLERECKEEQCSFEEAREIFKDAERTKLFWISYSDGDQCASSPCQNGGSCKDQLQSYICFCLPAFEGRNCETHKDDQLICVNENGGCEQYCSDHTGTKRSCRCHEGYSLLADGVSCTPTVEYPCGKIPILEKRNASKPQGRIVGGKVCPKGECPWQVLLLVNGAQLCGGTLINTIWVVSAAHCFDKIKNWRNLIAVLGEHDLSEHDGDEQSRRVAQVIIPSTYVPGTTNHDIALLRLHQPVVLTDHVVPLCLPERTFSERTLAFVRFSLVSGWGQLLDRGATALELMVLNVPRLMTQDCLQQSRKVGDSPNITEYMFCAGYSDGSKDSCKGDSGGPHATHYRGTWYLTGIVSWGQGCATVGHFGVYTRVSQYIEWLQKLMRSEPRPGVLLRAPFP", "values": [
      {"measurement": "FXa generation by the extrinsic Xase (chromogenic FXa substrate), 2 nM TFPI", "setting": "[2]", "result": "curve #6 shows that TFPI shuts down Xa generation in the absence of ARC19499"}
    ]},
    {"protein": "Factor Xa (FXa) (protein) chain 1: ANSFLEEMKKGHLERECMEETCSYEEAREVFEDSDKTNEFWNKYKDGDQCETSPCQNQGKCKDGLGEYTCTCLEGFEGKNCELFTRKLCSLDNGDCDQFCHEEQNSVVCSCARGYTLADNGKACIPTGPYPCGKQTLER chain 2: IVGGQECKDGECPWQALLINEENEGFCGGTILSEFYILTAAHCLYQAKRFKVRVGDRNTEQEEGGEAVHEVEVVIKHNRFTKETYDFDIAVLRLKTPITFRMNVAPACLPERDWAESTLMTQKTGIVSGFGRTHEKGRQSTRLKMLEVPYVDRNSCKLSSSFIITQNMFCAGYDTKQEDACQGDSGGPHVTRFKDTYFVTGIVSWGEGCARKGKYGIYTKVTAFLKWIDRSMKTRGLPKAKSHAPEVITSSPLK", "values": [
      {"measurement": "FXa cleavage of chromogenic substrate S-2765, substrate added last, 1 nM FXa", "setting": "[1]", "result": "In the presence of ≧8 nM TFPI, inhibition is nearly complete under these conditions and little product is formed"}
    ]}
  ]
}
